Source: patent US20080027001A1, “NOGO RECEPTOR FUNCTIONAL MOTIFS, PEPTIDE MIMETICS, AND MUTATED FUNCTIONAL MOTIFS RELATED THERETO, AND METHODS OF USING THE SAME” (priority 2006, published 2008)
Residue numbers refer to the chain shown, from its start. In names and notes the source's numbering stands.

T1: MAG-AP (Homo sapiens, UniProt P20916)
T1 construct: human MAG; NM_002361; amino acids 1-516; made in house; NgR1 transiently transfected into COS-7 cells
T1 sequence (P20916 20-516): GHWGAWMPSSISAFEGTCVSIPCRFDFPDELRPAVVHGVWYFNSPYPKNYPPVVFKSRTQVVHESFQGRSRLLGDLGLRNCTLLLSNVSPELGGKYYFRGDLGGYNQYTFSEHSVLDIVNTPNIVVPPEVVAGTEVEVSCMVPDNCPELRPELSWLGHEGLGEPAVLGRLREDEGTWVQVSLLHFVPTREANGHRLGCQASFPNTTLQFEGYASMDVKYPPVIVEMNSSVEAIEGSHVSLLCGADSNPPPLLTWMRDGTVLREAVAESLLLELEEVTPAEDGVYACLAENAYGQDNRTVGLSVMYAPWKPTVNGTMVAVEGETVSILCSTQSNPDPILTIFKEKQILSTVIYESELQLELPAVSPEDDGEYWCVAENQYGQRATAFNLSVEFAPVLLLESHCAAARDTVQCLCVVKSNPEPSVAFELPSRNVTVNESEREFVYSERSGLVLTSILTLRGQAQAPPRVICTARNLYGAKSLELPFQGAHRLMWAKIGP

B1: EM7: human NgR1 point mutant K277D/R279D (protein)
chain: CPGACVCYNEPKVTTSCPQQGLQAVPVGIPAASQRIFLHGNRISHVPAASFRACRNLTILWLHSNVLARIDAAAFTGLALLEQLDLSDNAQLRSVDPATFHGLGRLHTLHLDRCGLQELGPGLFRGLAALQYLYLQDNALQALPDDTFRDLGNLTHLFLHGNRISSVPERAFRGLHSLDRLLLHQNRVAHVHPHAFRDLGRLMTLYLFANNLSALPTEALAPLRALQYLRLNDNPWVCDCRARPLWAWLQDFDGSSSEVPCSLPQRLAGRDLKRLAANDLQGCAVATGPYHPIWTGRATDEEPLGLPKCCQPDAADKASVLEPGRPASAGNALKGRVPPGDSPPGNGSGPRHINDSPFGTLPGSAEPPLTAVRPEGSEPPGFPTSGPRRRPGCSRKNRTRSHCRLGQAGSGGGGTGDSEGS
B2: EM8: human NgR1 point mutant K277A, R279A (protein)
chain: B1 chain with D251A, D253A
B3: EM11: human NgR1 point mutant R279A (protein)
chain: B1 chain with D251K, D253A

The molecules below were run against T1, MAG-AP (assay: Cell-surface NgR binding assay, MAG-AP). Conditions: mutant NgR1 in COS-7 cells; MAG-AP 10 μg/ml (FIG. 7B).
Experimental: COS-7 cells were cotransfected with either wild type or mutant NgR1 constructs along with a CMV-beta-galactosidase plasmid (pCMVb, BD Biosciences, San Jose, Calif.) as a transfection control. Transfection was performed in 6-well plates using Lipofectamine 2000 (Invitrogen, Carlsbad, Calif.) following the manufacturer's protocol. The next day, cells were trypsinized and seeded at 30,000 cells per well in duplicate polylysine-coated 96-well plates (BD Biosciences); one plate was used in the binding assay, and the other was used to correct for transfection efficiency by measuring beta-galactosidase activity (described below). The remaining cells were separately plated and assayed for surface expression of the NgR1 proteins by immunocytochemistry (Example 1.9) and for total NgR1 protein levels by Western blot analysis (Example 1.8). […] Binding of AP-tagged ligands was measured using the Great EscAPe SEAP Kit (BD Biosciences) following the manufacturer's recommended protocol. […] Sixty microliters of diluted CSPD® substrate (Applied Biosystems, Foster City, Calif.) was then added per well, incubated for 10 minutes at room temperature, and then read on an LMAXII luminometer (Molecular Devices). […] Beta-galactosidase activity was measured using the luminescent beta-gal detection kit II (BD Biosciences) following the manufacturer's recommended protocol. […]
Separate statistical analysis was performed for MAG-AP and Nogo-66-AP binding; a linear mixed model was fitted to the data using the receptors as the fixed effects and the experiments, replicates within each experiment, and receptor×experiment interactions as the random effects. […] Pairwise comparisons were performed between receptors in the framework of the linear mixed model, and raw p-values and Tukey-Kramer multiplicity-adjusted p-values were calculated. The corresponding 95% confidence intervals were also calculated.
(SEQ ID NO:51). […] Nogo-66-AP(C47V) concentration was determined by measuring alkaline phosphatase activity and by Western blot analysis for alkaline phosphatase. […]

| Molecule | reduction in binding of soluble MAG (MAG-AP) relative to wild type NgR1 |
| --- | --- |
| B1 | 57% |
| B2 | 58% |
| B3 | 36% |
